For assay [1], the target named is TAG-72 antigen on a human breast carcinoma extract (human). Briefly: competition RIA against 125I-labeled CC49 IgG, human breast carcinoma extract.

On to trypsin (enzyme), for which, in the assay with CC49/212 single-chain Fv, the half-life (t1/2) of intact sFv, reverse phase HPLC worked out at 3.26 h.
On the same count and under the same terms, then “subtilisin BPN' (Type XXVII protease, Sigma) (from UniProt P00782) (enzyme)”, with 2.05 h.
Turning to CC49/218 single-chain Fv (scFv), in assay [1], the fold lower affinity than the CC49/212 sFv is 4 fold.

Source of the values: US5990275.
